Positions count from the first letter of the chain named. Numbers in names are those of the source.
Tests used:
[1] = target: the molecule itself; experiment: cryo-electron microscopy and tomography; MreB 1 mg/ml with 1 mg/ml liposomes (E. coli total lipid extract) or lipid tubes (plus 30% C24:1 β-D galactosyl ceramide), 2 mM ATP, 4 mM MgCl2; CcMreB in 12.5 mM Tris-HCl 7.5, TmMreB in 100 mM Tris-HCl 7.5, 200 mM NaCl; 2D and subtomogram averaging
[2] = target: the molecule itself; experiment: crystal structure; C. crescentus MreB constructs crystallised at 10-30 mg/ml, empty or with ADP or AMPPNP, no inhibitor; filament or monomer state read from the crystal packing
[3] = target: the molecule itself; experiment: as above; remark: listed apart in the source
[4] = target: the molecule itself; experiment: negative-stain electron microscopy; pre-assembled filaments (CcMreB 0.25 mg/ml, V118E 0.13 mg/ml) in 12.5 mM Tris-HCl 7.5, 2 mM ATP, 4 mM MgCl2 on a monolayer of E. coli total lipid extract, 2% uranyl acetate; 2D averaging

B1: Full-length untagged Thermotoga maritima MreB1 (TmMreB) (natural protein, UniProt Q9WZ57 1-336, looked up)
chain: MLRKDIGIDLGTANTLVFLRGKGIVVNEPSVIAIDSTTGEILKVGLEAKNMIGKTPATIKAIRPMRDGVIADYTVALVMLRYFINKAKGGMNLFKPRVVIGVPIGITDVERRAILDAGLEAGASKVFLIEEPMAAAIGSNLNVEEPSGNMVVDIGGGTTEVAVISLGSIVTWESIRIAGDEMDEAIVQYVRETYRVAIGERTAERVKIEIGNVFPSKENDELETTVSGIDLSTGLPRKLTLKGGEVREALRSVVVAIVESVRTTLEKTPPELVSDIIERGIFLTGGGSLLRGLDTLLQKETGISVIRSEEPLTAVAKGAGMVLDKVNILKKLQGAG
notes: MreB1, Thermotoga maritima, GenBank AAD35673.1, M1-G336; called non-tagged / untagged; also called pFE349 (plasmid); source: expressed as an Intein-CBD-tagged fusion from plasmid pFE349 and purified as described previously (Salje et al., 2011)
B1: binds [1].

B2: ΔCcMreBh (M-I9-CcMreB-A347-GSHHHHHH) (domain or fragment, Caulobacter crescentus)
chain: MISNDIAIDLGTANTLIYQKGKGIVLNEPSVVALRNVGGRKVVHAVGIEAKQMLGRTPGHMEAIRPMRDGVIADFEVAEEMIKYFIRKVHNRKGFVNPKVIVCVPSGATAVERRAINDSCLNAGARRVGLIDEPMAAAIGAGLPIHEPTGSMVVDIGGGTTEVAVLSLSGIVYSRSVRVGGDKMDEAIISYMRRHHNLLIGETTAERIKKEIGTARAPADGEGLSIDVKGRDLMQGVPREVRISEKQAADALAEPVGQIVEAVKVALEATPPELASDIADKGIMLTGGGALLRGLDAEIRDHTGLPVTVADDPLSCVALGCGKVLEHPKWMKGVLESTLA
notes: start methionine placed before I9; MreB, Caulobacter crescentus, GenBank ACL95077.1, I9-A347 (N-terminal amphipathic helix deleted); Electrospray mass 36,916 Da (36,911 Da expected); also called CCM2; source: E. coli C41(DE3), purified (HisTrap, Sephacryl S300HR)
B2: binds [2].

B3: ΔCcMreBdh (M-I9-CcMreB(F102S, V103G)-A347-GSHHHHHH) (domain or fragment, Caulobacter crescentus)
chain: B2 chain with F95S, V96G
notes: start methionine placed before I9; MreB, Caulobacter crescentus, GenBank ACL95077.1, I9-A347, hydrophobic loop mutated (F102S, V103G); Electrospray mass 36,813 Da (36,809 Da expected); also called pFE397 (plasmid); source: E. coli C41(DE3), purified (HisTrap, Sephacryl S300HR)
B3: binds [3].

B4: Full-length, untagged MreB from C. crescentus (CcMreB) (natural protein, Caulobacter crescentus, UniProt A0A0H3C7V4 1-347, looked up)
chain: MFSSLFGVISNDIAIDLGTANTLIYQKGKGIVLNEPSVVALRNVGGRKVVHAVGIEAKQMLGRTPGHMEAIRPMRDGVIADFEVAEEMIKYFIRKVHNRKGFVNPKVIVCVPSGATAVERRAINDSCLNAGARRVGLIDEPMAAAIGAGLPIHEPTGSMVVDIGGGTTEVAVLSLSGIVYSRSVRVGGDKMDEAIISYMRRHHNLLIGETTAERIKKEIGTARAPADGEGLSIDVKGRDLMQGVPREVRISEKQAADALAEPVGQIVEAVKVALEATPPELASDIADKGIMLTGGGALLRGLDAEIRDHTGLPVTVADDPLSCVALGCGKVLEHPKWMKGVLESTLA
notes: MreB, Caulobacter crescentus, GenBank ACL95077.1, M1-A347; Forms filaments (double protofilaments); number of copies not defined; also called Caulobacter MreB; pFE403 (plasmid); source: E. coli C41, purified (HisTrap, elution by SUMO protease, GST column, S300HR size exclusion)
B4: binds [4].

B5: CcMreB-V118E (inter-protofilament mutant V118E in full-length CcMreB) (natural protein, Caulobacter crescentus, UniProt A0A0H3C7V4 1-347, looked up)
chain: B4 chain with V118E
notes: MreB, Caulobacter crescentus, GenBank ACL95077.1, full length with V118E; also called pFE542 (plasmid); source: E. coli C41, purified (HisTrap, elution by SUMO protease, GST column, S300HR size exclusion); not shown: His-SUMO, N-terminal, cleaved
B5: binds [4].

— article PMC4051119, “Bacterial actin MreB forms antiparallel double filaments” (eLife, 2014)
